B1: RNF115 peptide 67-82 (E3 ubiquitin-protein ligase RNF115), 16-mer library wild type / MDM2 SWIB (MDM2 SWIB/MDM2 domain, residues 17-125) (parent complex)
chain 1: TTTHFAELWGHLDHTM
chain 2: SQIPASEQETLVRPKPLLLKLLKSVGAQKDTYTMKEVLFYLGQYIMTKRLYDEKQQHIVYCSNDLLGDLFGVPSFSVKEHRKIYTMIYRNLVVVNQQESSDSGTSVSEN

Variants of: B1
Test: proteomic peptide phage display deep mutational scan (ProP-PD DMS): M13 P8 16-mer library selected against immobilised GST-tagged bait for four days (rounds), NGS of the eluted pools per day and pseudo-replica; bait immobilised on MaxiSorp plates (10 µg), library pre-cleared on GST, 2 h binding at 4 °C, five washes; one round per day, days 1-4; value from days 2 and 3

First: chain 1 D13V
Second: chain 1 H4Y
The screen value of the first is higher: 0.0143 average fractional NGS count over selection days 2 and 3 (reads of this peptide / all reads for the bait, averaged over … for the first, 0.000766 average fractional NGS count over selection days 2 and 3 (reads of this peptide / all reads for the bait, averaged over … for the second.

Compared with chain 1 H4G, chain 1 H4I is lower in screen value: 0.00192 average fractional NGS count over selection days 2 and 3 (reads of this peptide / all reads for the bait, averaged over … for the first, 0.000874 average fractional NGS count over selection days 2 and 3 (reads of this peptide / all reads for the bait, averaged over … for the second.

Compared with chain 1 H4N, chain 1 H4T is higher in screen value: 0.000308 average fractional NGS count over selection days 2 and 3 (reads of this peptide / all reads for the bait, averaged over … for the first, 0.002 average fractional NGS count over selection days 2 and 3 (reads of this peptide / all reads for the bait, averaged over … for the second.

First: chain 1 H4P
Second: chain 1 H4D
The screen value of the first is higher: 0.000821 average fractional NGS count over selection days 2 and 3 (reads of this peptide / all reads for the bait, averaged over … for the first, 0.000343 average fractional NGS count over selection days 2 and 3 (reads of this peptide / all reads for the bait, averaged over … for the second.

Going from chain 1 H4L to chain 1 H4M, the screen value rises from 0.000482 average fractional NGS count over selection days 2 and 3 (reads of this peptide / all reads for the bait, averaged over … to 0.000847 average fractional NGS count over selection days 2 and 3 (reads of this peptide / all reads for the bait, averaged over ….

First: chain 1 H4E
Second: chain 1 H4A
The screen value of the first is higher: 0.000591 average fractional NGS count over selection days 2 and 3 (reads of this peptide / all reads for the bait, averaged over … for the first, 0.000176 average fractional NGS count over selection days 2 and 3 (reads of this peptide / all reads for the bait, averaged over … for the second.

Compared with chain 1 H4F, chain 1 T2Y is lower in screen value: 0.000236 average fractional NGS count over selection days 2 and 3 (reads of this peptide / all reads for the bait, averaged over … for the first, 0.000215 average fractional NGS count over selection days 2 and 3 (reads of this peptide / all reads for the bait, averaged over … for the second.

Compared with chain 1 T2M, chain 1 T2I is higher in screen value: 0.000321 average fractional NGS count over selection days 2 and 3 (reads of this peptide / all reads for the bait, averaged over … for the first, 0.00157 average fractional NGS count over selection days 2 and 3 (reads of this peptide / all reads for the bait, averaged over … for the second.

First: chain 1 T2S
Second: chain 1 T2D
The screen value of the first is lower: 0.000484 average fractional NGS count over selection days 2 and 3 (reads of this peptide / all reads for the bait, averaged over … for the first, 0.00164 average fractional NGS count over selection days 2 and 3 (reads of this peptide / all reads for the bait, averaged over … for the second.

Compared with chain 1 T2E, chain 1 T2L is lower in screen value: 0.0056 average fractional NGS count over selection days 2 and 3 (reads of this peptide / all reads for the bait, averaged over … for the first, 0.000556 average fractional NGS count over selection days 2 and 3 (reads of this peptide / all reads for the bait, averaged over … for the second.

Going from chain 1 E7I to chain 1 E7D, the screen value rises from 0.000492 average fractional NGS count over selection days 2 and 3 (reads of this peptide / all reads for the bait, averaged over … to 0.000661 average fractional NGS count over selection days 2 and 3 (reads of this peptide / all reads for the bait, averaged over ….

Compared with chain 1 M16Y, chain 1 M16I is lower in screen value: 0.000534 average fractional NGS count over selection days 2 and 3 (reads of this peptide / all reads for the bait, averaged over … for the first, 0.000492 average fractional NGS count over selection days 2 and 3 (reads of this peptide / all reads for the bait, averaged over … for the second.

Going from chain 1 M16T to chain 1 M16A, the screen value falls from 0.00044 average fractional NGS count over selection days 2 and 3 (reads of this peptide / all reads for the bait, averaged over … to 9.05e-05 average fractional NGS count over selection days 2 and 3 (reads of this peptide / all reads for the bait, averaged over ….

Compared with chain 1 M16E, chain 1 M16W is higher in screen value: 0.000437 average fractional NGS count over selection days 2 and 3 (reads of this peptide / all reads for the bait, averaged over … for the first, 0.000718 average fractional NGS count over selection days 2 and 3 (reads of this peptide / all reads for the bait, averaged over … for the second.

Compared with chain 1 L8H, chain 1 L8Y is higher in screen value: 0.000131 average fractional NGS count over selection days 2 and 3 (reads of this peptide / all reads for the bait, averaged over … for the first, 0.0291 average fractional NGS count over selection days 2 and 3 (reads of this peptide / all reads for the bait, averaged over … for the second.

Going from chain 1 L8M to chain 1 L8I, the screen value falls from 0.000104 average fractional NGS count over selection days 2 and 3 (reads of this peptide / all reads for the bait, averaged over … to 7.89e-05 average fractional NGS count over selection days 2 and 3 (reads of this peptide / all reads for the bait, averaged over ….

Compared with chain 1 L8W, chain 1 L8F is lower in screen value: 0.00339 average fractional NGS count over selection days 2 and 3 (reads of this peptide / all reads for the bait, averaged over … for the first, 0.000568 average fractional NGS count over selection days 2 and 3 (reads of this peptide / all reads for the bait, averaged over … for the second.

First: chain 1 H11D
Second: chain 1 H11K
The screen value of the first is lower: 0.00024 average fractional NGS count over selection days 2 and 3 (reads of this peptide / all reads for the bait, averaged over … for the first, 0.000921 average fractional NGS count over selection days 2 and 3 (reads of this peptide / all reads for the bait, averaged over … for the second.

First: chain 1 H11Q
Second: chain 1 H11V
The screen value of the first is higher: 0.00312 average fractional NGS count over selection days 2 and 3 (reads of this peptide / all reads for the bait, averaged over … for the first, 0.00167 average fractional NGS count over selection days 2 and 3 (reads of this peptide / all reads for the bait, averaged over … for the second.

First: chain 1 H11S
Second: chain 1 H11N
The screen value of the first is higher: 0.000392 average fractional NGS count over selection days 2 and 3 (reads of this peptide / all reads for the bait, averaged over … for the first, 0.000176 average fractional NGS count over selection days 2 and 3 (reads of this peptide / all reads for the bait, averaged over … for the second.

Going from chain 1 H11L to chain 1 H11R, the screen value falls from 0.00334 average fractional NGS count over selection days 2 and 3 (reads of this peptide / all reads for the bait, averaged over … to 0.000902 average fractional NGS count over selection days 2 and 3 (reads of this peptide / all reads for the bait, averaged over ….

Going from chain 1 H11M to chain 1 H11Y, the screen value rises from 0.00257 average fractional NGS count over selection days 2 and 3 (reads of this peptide / all reads for the bait, averaged over … to 0.00946 average fractional NGS count over selection days 2 and 3 (reads of this peptide / all reads for the bait, averaged over ….

Compared with chain 1 H11F, chain 1 H11W is lower in screen value: 0.00626 average fractional NGS count over selection days 2 and 3 (reads of this peptide / all reads for the bait, averaged over … for the first, 0.00259 average fractional NGS count over selection days 2 and 3 (reads of this peptide / all reads for the bait, averaged over … for the second.

Going from chain 1 H11G to chain 1 H11T, the screen value rises from 0.000565 average fractional NGS count over selection days 2 and 3 (reads of this peptide / all reads for the bait, averaged over … to 0.00102 average fractional NGS count over selection days 2 and 3 (reads of this peptide / all reads for the bait, averaged over ….

First: chain 1 F5Y
Second: chain 1 F5S
The screen value of the first is lower: 0.0001 average fractional NGS count over selection days 2 and 3 (reads of this peptide / all reads for the bait, averaged over … for the first, 0.000118 average fractional NGS count over selection days 2 and 3 (reads of this peptide / all reads for the bait, averaged over … for the second.

Going from chain 1 F5Q to chain 1 F5T, the screen value falls from 0.00091 average fractional NGS count over selection days 2 and 3 (reads of this peptide / all reads for the bait, averaged over … to 7.7e-05 average fractional NGS count over selection days 2 and 3 (reads of this peptide / all reads for the bait, averaged over ….

Compared with chain 1 G10T, chain 1 G10Q is higher in screen value: 0.000148 average fractional NGS count over selection days 2 and 3 (reads of this peptide / all reads for the bait, averaged over … for the first, 0.000894 average fractional NGS count over selection days 2 and 3 (reads of this peptide / all reads for the bait, averaged over … for the second.

Compared with chain 1 G10A, chain 1 G10Y is lower in screen value: 0.00678 average fractional NGS count over selection days 2 and 3 (reads of this peptide / all reads for the bait, averaged over … for the first, 0.000227 average fractional NGS count over selection days 2 and 3 (reads of this peptide / all reads for the bait, averaged over … for the second.

First: chain 1 G10L
Second: chain 1 G10M
The screen value of the first is lower: 0.000164 average fractional NGS count over selection days 2 and 3 (reads of this peptide / all reads for the bait, averaged over … for the first, 0.00144 average fractional NGS count over selection days 2 and 3 (reads of this peptide / all reads for the bait, averaged over … for the second.

Going from chain 1 G10N to chain 1 A6Q, the screen value falls from 0.000457 average fractional NGS count over selection days 2 and 3 (reads of this peptide / all reads for the bait, averaged over … to 0.000266 average fractional NGS count over selection days 2 and 3 (reads of this peptide / all reads for the bait, averaged over ….

First: chain 1 A6H
Second: chain 1 A6S
The screen value of the first is lower: 0.00017 average fractional NGS count over selection days 2 and 3 (reads of this peptide / all reads for the bait, averaged over … for the first, 0.000754 average fractional NGS count over selection days 2 and 3 (reads of this peptide / all reads for the bait, averaged over … for the second.

First: chain 1 A6W
Second: chain 1 A6M
The screen value of the first is lower: 0.000676 average fractional NGS count over selection days 2 and 3 (reads of this peptide / all reads for the bait, averaged over … for the first, 0.00215 average fractional NGS count over selection days 2 and 3 (reads of this peptide / all reads for the bait, averaged over … for the second.

Compared with chain 1 T3S, chain 1 T3I is higher in screen value: 0.000431 average fractional NGS count over selection days 2 and 3 (reads of this peptide / all reads for the bait, averaged over … for the first, 0.00069 average fractional NGS count over selection days 2 and 3 (reads of this peptide / all reads for the bait, averaged over … for the second.

First: chain 1 T3G
Second: chain 1 T3A
The screen value of the first is lower: 0.000204 average fractional NGS count over selection days 2 and 3 (reads of this peptide / all reads for the bait, averaged over … for the first, 0.000681 average fractional NGS count over selection days 2 and 3 (reads of this peptide / all reads for the bait, averaged over … for the second.

First: chain 1 T3Q
Second: chain 1 T3L
The screen value of the first is lower: 0.000196 average fractional NGS count over selection days 2 and 3 (reads of this peptide / all reads for the bait, averaged over … for the first, 0.00187 average fractional NGS count over selection days 2 and 3 (reads of this peptide / all reads for the bait, averaged over … for the second.

Compared with chain 1 T3H, chain 1 T3V is higher in screen value: 0.000104 average fractional NGS count over selection days 2 and 3 (reads of this peptide / all reads for the bait, averaged over … for the first, 0.000622 average fractional NGS count over selection days 2 and 3 (reads of this peptide / all reads for the bait, averaged over … for the second.

Going from chain 1 T3W to chain 1 T3D, the screen value falls from 0.00105 average fractional NGS count over selection days 2 and 3 (reads of this peptide / all reads for the bait, averaged over … to 0.000232 average fractional NGS count over selection days 2 and 3 (reads of this peptide / all reads for the bait, averaged over ….

chain 1 T3Y was tested, and the screen value was 0.000753 average fractional NGS count over selection days 2 and 3 (reads of this peptide / all reads for the bait, averaged over ….
